Test results reported in US20110286981A1 (ZEALAND PHARMA A S, published 2011).

Experiments:
human glucagon receptor = human glucagon receptor (human, UniProt P47871 26-477); assay: cell-based or functional assay
[1] = target: human glucagon-like peptide 1 receptor (human, UniProt P43220 24-463); assay: cell-based or functional assay
Chain of human glucagon-like peptide 1 receptor (P43220 24-463): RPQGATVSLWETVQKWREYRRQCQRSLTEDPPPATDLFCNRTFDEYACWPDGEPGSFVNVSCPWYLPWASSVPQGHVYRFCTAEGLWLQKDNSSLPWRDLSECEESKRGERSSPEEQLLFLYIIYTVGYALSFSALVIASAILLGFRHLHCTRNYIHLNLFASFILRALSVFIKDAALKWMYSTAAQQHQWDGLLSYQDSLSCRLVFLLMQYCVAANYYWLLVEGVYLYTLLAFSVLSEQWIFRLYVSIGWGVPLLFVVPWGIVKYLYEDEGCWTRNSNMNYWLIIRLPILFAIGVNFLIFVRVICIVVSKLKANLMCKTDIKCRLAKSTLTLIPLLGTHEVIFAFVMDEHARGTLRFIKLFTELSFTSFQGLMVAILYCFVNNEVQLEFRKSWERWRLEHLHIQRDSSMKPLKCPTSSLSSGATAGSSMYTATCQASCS

Binder	GLUR EC50 (cAMP formation in HEK293 cells expressing human Glucagon-R) (human glucagon receptor) [nmol]	GLP-1R EC50 (cAMP formation in HEK293 cells expressing human GLP-1-R) [1] [nmol]
H-HSQGTFTSDYSKYLDERAAKDFIEWLLSA-NH2 [L006-0108]	0.81	0.53
H-HSQGTFTSDYSKYLDERRAKDFIQWLLSA-NH2 [L006-0084]	0.13	0.07
H-HSQGTFTSDYSKYLDERRAQDFIEWLLSA-NH2 [L006-0082]		0.09
H-HSQGTFTSDYSKYLDKRRAEDFIKWLLSA-NH2 [L006-0094]	0.25	0.16
H-HSQGTFTSDYSKYLDSRRAQDFIEWLLSA-NH2 [L006-0090]	0.22	0.15
H-HSQGTFTSDYSKYLDERRAKDFIEWLLRA-NH2 [L006-0138]	0.38	0.29
H-HSQGTFTSDYSKYLDERRAKDFIEWLLAA-NH2 [L006-0136]	0.33	0.22

The next lines start with the values.

GLUR EC50 (cAMP formation in HEK293 cells expressing human Glucagon-R) (human glucagon receptor) [nmol]	GLP-1R EC50 (cAMP formation in HEK293 cells expressing human GLP-1-R) [1] [nmol]	Binder
0.24	0.2	H-HSQGTFTSDYSKYLDERRAKDFIDWLLSA-NH2 [L006-0129]
0.22	0.16	H-HSQGTFTSDYSKYLDERRAKDFIRWLLSA-NH2 [L006-0128]
0.1	0.07	H-HSQGTFTSDYSKYLDDRRARDFIDWLLSA-NH2 [L006-0093]
0.23	0.14	H-HSQGTFTSDYSKYLDSRRAKDFIEWLLSA-NH2 [L006-0081]
